The values that follow come from PMC3136132.

Data set [1] deals with T1, FMRP (UniProt Q06787 1-632). Briefly: biotin-RNA affinity capture; 2 uM RNA; slightly less than full-length BC1, P=.15; 50 mM Tris-HCl pH 7.4, 2 mM MgCl2, 150 mM KCl, 1 mM EDTA, 1 mM DTT (Schaeffer buffer without tRNA, supplemented with 125 mM NaCl); SoftLink avidin resin; temper.
In data set [2] the target is T1, FMRP. Briefly: biotin-RNA affinity capture; 2 uM RNA; 50 mM Tris-HCl pH 7.4, 2 mM MgCl2, 150 mM KCl, 1 mM EDTA, 1 mM DTT (Schaeffer buffer without tRNA, supplemented with 125 mM NaCl); SoftLink avidin resin; temper.

B1: 5'BC1-75 RNA, annealed (structured_RNA)
RNA: GGGGUUGGGGAUUUAGCUCAGUGGUAGAGCGCUUGCCUAGCAAGCGCAAGGCCCUGGGUUCGGUCCUCAGCUCU
Consider B1, for which, in the data set with FMRP [1], the binding result is reported as “binds”.

B2: 3'BC1-60 RNA, annealed (structured_RNA)
RNA: AAAAAAGACAAAAUAACAAAAAGACCAAAAAAAAAACAAGGUAACUGGCACACACAACCUUU
As for B2, in the data set with FMRP [2], the binding result is given as “no binding”.
